Laboratory results published in patent US20170129962A1 (Hoffmann-La Roche, published 2017).

How the values were obtained:
[1] = biological target: T1, human IL17 (human, UniProt Q16552 24-155); assay: SPR (Biacore), bispecific antibody captured by anti-human F(ab')2, human IL17 as analyte, 1:1 Langmuir
T1 construct: for that reason an apparent KD is reported; also called IL17-A
T1 sequence (looked up): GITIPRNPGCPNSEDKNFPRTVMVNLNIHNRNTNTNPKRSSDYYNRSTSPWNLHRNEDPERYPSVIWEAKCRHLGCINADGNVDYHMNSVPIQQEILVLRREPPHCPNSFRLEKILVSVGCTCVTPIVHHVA
Method: (§1) Around 6000 resonance units (RU) of the capturing system (15 μg/ml goat anti human F(ab′)2; Order Code: 28958325; GE Healthcare Bio-Sciences AB, Schweden) were coupled on a CMS chip at pH 5.0 by using an amine coupling kit supplied by the GE Healthcare. The sample and system buffer was PBS-T (10 mM phosphate buffered saline including 0.05% Tween 20) pH 7.4. The bispecific antibody was captured by injecting a 50 nM solution for 90 sec at a flow of 10 μl/min. Association was measured by injection human IL17 in various concentrations in solution for 3 min at a flow of 30 μl/min starting with 50 nM in 1:1 serial dilutions. The dissociation phase was monitored for up to 10 min and triggered by switching from the sample solution to running buffer. The surface was regenerated twice by 60 sec wash with a 10 mM glycine pH 2.1 solution at a flow rate of 30 μl/min. Bulk refractive index differences were corrected by subtracting the response obtained from a goat anti human F(ab′)2 surface. Blank injections are also subtracted (=double referencing). For calculation of apparent KD and other kinetic parameters, the Langmuir 1:1 model was used.
(§2) Binding of the multispecific antibodies to their respective target antigens, i.e. IL17 and TWEAK, was assessed by Biacore® as described in the general methods section.

[2] = biological target: T2, TWEAK (human, UniProt O43508 94-249, limits assumed); assay: SPR (Biacore), TWEAK amine-coupled on C1 chip, bispecific antibody as analyte, 1:1 Langmuir
T2 construct: The method paragraph says only 'TWEAK'; also called human TWEAK; TNF-related weak inducer of apoptosis
T2 sequence (looked up): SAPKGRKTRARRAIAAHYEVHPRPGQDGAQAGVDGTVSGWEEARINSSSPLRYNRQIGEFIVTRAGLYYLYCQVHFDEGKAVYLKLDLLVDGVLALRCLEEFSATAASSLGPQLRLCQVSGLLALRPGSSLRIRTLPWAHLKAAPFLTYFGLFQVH
Method: Around 100 RU of TWEAK was immobilized on the C1 chip surface at pH 5.0 using an amine coupling kit supplied by the GE Healthcare. The sample and system buffer was PBS-T (10 mM phosphate buffered saline including 0.05% Tween 20) pH 7.4. Association was measured by injection the bispecific antibody in various concentrations in solution for 3 min at a flow of 30 μl/min starting with 50 nM in 1:1 serial dilutions. The dissociation phase was monitored for up to 10 min and triggered by switching from the sample solution to running buffer. The surface was regenerated three times by 30 sec wash with a 3 M MgCl2 solution at a flow rate of 30 μl/min. Bulk refractive index differences were corrected by subtracting the response obtained from a blank-coupled surface. Blank injections are also subtracted (=double referencing). For calculation of KD and other kinetic parameters, the Langmuir 1:1 model was used.
as §2

[3] = biological target: T1, human IL17; assay: SPR (Biacore), bispecific antibody captured by anti-human F(ab')2, human IL17 as analyte, 1:1 Langmuir, apparent KD
Method: as §1, §2

B1: TweakIL17-0132 (bispecific antibody, human IgG4 S228P, kappa)
light 1: DIVMTQSPLSLPVTPGEPASISCRSSQSLVHSNGDTYFHWYLQKPGQSPQLLIYKVSNRFSGVPDRFSGSGSGTDFTLKISRVEAEDVGVYYCSQTTHAPFTFGQGTKLEIKRTVAAPSVFIFPPSDKRLKSGTASVVCLLNNFYPREAKVQWKVDNALQSGNSQESVTEQDSKDSTYSLSSTLTLSKADYEKHKVYACEVTHQGLSSPVTKSFNRGEC
heavy 1: EVQLVESGGGLVQPGGSLRLSCAASGFSLDSYGVHWVRQATGKGLEWVSVIWSDGTTTYNSALKSRFTISRENAKNSLYLQMNSLRAGDTAVYYCARDTHYRLYYYAMDYWGQGTTVTVSSASTKGPSVFPLAPCSRSTSESTAALGCLVEDYFPEPVTVSWNSGALTSGVHTFPAVLQSSGLYSLSSVVTVPSSSLGTKTYTCNVDHKPSNTKVDERVESKYGPPCPPCPAPEFEGGPSVFLFPPKPKDTLMISRTPEVTCVVVDVSQEDPEVQFNWYVDGVEVHNAKTKPREEQFNSTYRVVSVLTVLHQDWLNGKEYKCKVSNKGLPSSIEKTISKAKGQPREPQVCTLPPSQEEMTKNQVSLSCAVKGFYPSDIAVEWESNGQPENNYKTTPPVLDSDGSFFLVSRLTVDKSRWQEGNVFSCSVMHEALHNHYTQKSLSLSLGK
light 2: DIQMTQSPSSVSASVGDRVTITCQASQNIYSNLAWYQQKPGKAPKLLIYTASYLASGVPSRFSGSGSGTDYTLTISSLQPEDFATYYCQTAYYNSRPDTVAFGGGTKVEIKSSASTKGPSVFPLAPCSRSTSESTAALGCLVKDYFPEPVTVSWNSGALTSGVHTFPAVLQSSGLYSLSSVVTVPSSSLGTKTYTCNVDHKPSNTKVDKRVESKYG
heavy 2: QVQLVQSGAEVKKPGSSVKVSCKASGFDFSTYYMSWVRQAPGQGLEWMGTVYVRQGTTYYASWLNGRVTITADESTSTAYMELSSLRSEDTAVYYCARGGYNYDDAFVIWGQGTLVTVSSASVAAPSVFIFPPSDEQLKSGTASVVCLLNNFYPREAKVQWKVDNALQSGNSQESVTEQDSKDSTYSLSSTLTLSKADYEKHKVYACEVTHQGLSSPVTKSFNRGECPPCPPCPAPEFEGGPSVFLFPPKPKDTLMISRTPEVTCVVVDVSQEDPEVQFNWYVDGVEVHNAKTKPREEQFNSTYRVVSVLTVLHQDWLNGKEYKCKVSNKGLPSSIEKTISKAKGQPREPQVYTLPPCQEEMTKNQVSLWCLVKGFYPSDIAVEWESNGQPENNYKTTPPVLDSDGSFFLYSRLTVDKSRWQEGNVFSCSVMHEALHNHYTQKSLSLSLGK
notes: CrossMAb CH1-CL, knob-into-hole with S354C/Y349C
- koff [1]: 0.00013 s⁻¹
- kon [1]: 1.39e+06 M⁻¹ s⁻¹
- Kd [2]: < 0.1 nM
- koff [2]: 4.79e-05 s⁻¹
- kon [2]: 1.17e+06 M⁻¹ s⁻¹
- Kd [3]: < 0.1 nM

B2: TweakIL17-0134 (bispecific antibody, human IgG4 S228P, kappa)
light 1: DIVMTQSPLSLPVTPGEPASISCRSSQSLVHSNGDTYFHWYLQKPGQSPQLLIYKVSNRFSGVPDRFSGSGSGTDFTLKISRVEAEDVGVYYCSQTTHAPFTFGQGTKLEIKRTVAAPSVFIFPPSDEKLKSGTASVVCLLNNFYPREAKVQWKVDNALQSGNSQESVTEQDSKDSTYSLSSTLTLSKADYEKHKVYACEVTHQGLSSPVTKSFNRGEC
heavy 1: EVQLVESGGGLVQPGGSLRLSCAASGFSLDSYGVHWVRQATGKGLEWVSVIWSDGTTTYNSALKSRFTISRENAKNSLYLQMNSLRAGDTAVYYCARDTHYRLYYYAMDYWGQGTTVTVSSASTKGPSVFPLAPCSRSTSESTAALGCLVEDYFPEPVTVSWNSGALTSGVHTFPAVLQSSGLYSLSSVVTVPSSSLGTKTYTCNVDHKPSNTKVDKRVESKYGPPCPPCPAPEFEGGPSVFLFPPKPKDTLMISRTPEVTCVVVDVSQEDPEVQFNWYVDGVEVHNAKTKPREEQFNSTYRVVSVLTVLHQDWLNGKEYKCKVSNKGLPSSIEKTISKAKGQPREPQVCTLPPSQEEMTKNQVSLSCAVKGFYPSDIAVEWESNGQPENNYKTTPPVLDSDGSFFLVSRLTVDKSRWQEGNVFSCSVMHEALHNHYTQKSLSLSLGK
light 2: DIQMTQSPSSVSASVGDRVTITCQASQNIYSNLAWYQQKPGKAPKLLIYTASYLASGVPSRFSGSGSGTDYTLTISSLQPEDFATYYCQTAYYNSRPDTVAFGGGTKVEIKSSASTKGPSVFPLAPCSRSTSESTAALGCLVKDYFPEPVTVSWNSGALTSGVHTFPAVLQSSGLYSLSSVVTVPSSSLGTKTYTCNVDHKPSNTKVDKRVESKYG
heavy 2: QVQLVQSGAEVKKPGSSVKVSCKASGFDFSTYYMSWVRQAPGQGLEWMGTVYVRQGTTYYASWLNGRVTITADESTSTAYMELSSLRSEDTAVYYCARGGYNYDDAFVIWGQGTLVTVSSASVAAPSVFIFPPSDEELKSGTASVVCLLNNFYPREAKVQWKVDNALQSGNSQESVTEQDSKDSTYSLSSTLTLSKADYEKHKVYACEVTHQGLSSPVTKSFNRGECPPCPPCPAPEFEGGPSVFLFPPKPKDTLMISRTPEVTCVVVDVSQEDPEVQFNWYVDGVEVHNAKTKPREEQFNSTYRVVSVLTVLHQDWLNGKEYKCKVSNKGLPSSIEKTISKAKGQPREPQVYTLPPCQEEMTKNQVSLWCLVKGFYPSDIAVEWESNGQPENNYKTTPPVLDSDGSFFLYSRLTVDKSRWQEGNVFSCSVMHEALHNHYTQKSLSLSLGK
notes: as for B1
- koff [1]: 0.000208 s⁻¹
- kon [1]: 1.1e+07 M⁻¹ s⁻¹
- Kd [2]: < 0.1 nM
- koff [2]: 3e-05 s⁻¹
- kon [2]: 870000 M⁻¹ s⁻¹
- Kd [3]: < 0.1 nM
